T1: MBP-OsRFL (Oryza sativa L., UniProt Q0JAI1 1-389)
T1 sequence: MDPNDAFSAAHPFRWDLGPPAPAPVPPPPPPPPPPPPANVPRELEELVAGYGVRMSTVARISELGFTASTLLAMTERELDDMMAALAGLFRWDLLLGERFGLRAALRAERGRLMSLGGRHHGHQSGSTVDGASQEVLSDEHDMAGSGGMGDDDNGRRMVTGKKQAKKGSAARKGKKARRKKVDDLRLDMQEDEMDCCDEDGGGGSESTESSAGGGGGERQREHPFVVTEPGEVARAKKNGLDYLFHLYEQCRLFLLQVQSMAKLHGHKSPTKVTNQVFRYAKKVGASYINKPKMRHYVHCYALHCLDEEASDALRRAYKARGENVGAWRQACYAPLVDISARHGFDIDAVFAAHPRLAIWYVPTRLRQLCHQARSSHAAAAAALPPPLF

B1: OsRFL promoter NRE probe (EMSA/OsRFL-3) (dsDNA)
DNA 1: TAATACTGTTGTTTGATACTAATGAGTCAAGTTG
DNA 2: CAACTTGACTCATTAGTATCAAACAACAGTATTA
B2: OsMOC1 promoter probe (EMSA/OsMOC1) (dsDNA)
DNA 1: TGGTGTTACCACTGGCTTGATCA
DNA 2: TGATCAAGCCAGTGGTAACACCA

Tests used:
MBP-OsNLP3 = MBP-OsNLP3 (Oryza sativa L., UniProt Q5NB82 1-938); experiment: EMSA
Sequence of MBP-OsNLP3 (Q5NB82 whole entry): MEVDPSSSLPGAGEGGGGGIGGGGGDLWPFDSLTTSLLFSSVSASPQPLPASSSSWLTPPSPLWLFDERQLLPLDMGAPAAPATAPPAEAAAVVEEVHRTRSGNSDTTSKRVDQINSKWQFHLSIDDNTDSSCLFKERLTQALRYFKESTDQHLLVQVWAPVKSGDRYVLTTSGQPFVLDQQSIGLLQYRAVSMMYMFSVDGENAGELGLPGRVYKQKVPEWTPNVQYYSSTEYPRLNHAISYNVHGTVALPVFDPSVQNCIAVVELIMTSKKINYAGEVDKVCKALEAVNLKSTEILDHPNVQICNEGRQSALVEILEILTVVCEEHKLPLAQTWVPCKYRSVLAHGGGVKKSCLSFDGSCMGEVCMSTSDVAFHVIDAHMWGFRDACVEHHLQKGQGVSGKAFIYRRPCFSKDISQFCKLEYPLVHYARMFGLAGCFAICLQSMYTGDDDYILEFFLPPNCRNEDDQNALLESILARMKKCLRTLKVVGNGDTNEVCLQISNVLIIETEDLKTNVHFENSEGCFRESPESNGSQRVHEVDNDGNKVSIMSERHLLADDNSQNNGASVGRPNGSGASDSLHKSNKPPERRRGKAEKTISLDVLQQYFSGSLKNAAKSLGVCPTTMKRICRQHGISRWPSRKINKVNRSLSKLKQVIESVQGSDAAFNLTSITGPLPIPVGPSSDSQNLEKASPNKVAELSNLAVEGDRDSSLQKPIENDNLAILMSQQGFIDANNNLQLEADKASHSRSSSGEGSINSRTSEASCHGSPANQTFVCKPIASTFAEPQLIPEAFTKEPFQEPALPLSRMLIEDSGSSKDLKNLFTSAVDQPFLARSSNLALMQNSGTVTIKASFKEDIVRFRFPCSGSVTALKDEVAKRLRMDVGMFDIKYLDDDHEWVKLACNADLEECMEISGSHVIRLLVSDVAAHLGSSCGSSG

MBP-OsRFL = biological target: T1, MBP-OsRFL; experiment: EMSA

Binder	binding result (MBP-OsNLP3)	binding result (MBP-OsRFL)
B1	binds	
B2		binds
